This is an account of results in publication PMC9949253 (2023).

The test concerns the target BTN3A1 full intracellular domain (BFI) (Homo sapiens, UniProt O00481). Nature of the test: ITC.

Chain of BTN3A1 full intracellular domain (BFI) (O00481 272-513): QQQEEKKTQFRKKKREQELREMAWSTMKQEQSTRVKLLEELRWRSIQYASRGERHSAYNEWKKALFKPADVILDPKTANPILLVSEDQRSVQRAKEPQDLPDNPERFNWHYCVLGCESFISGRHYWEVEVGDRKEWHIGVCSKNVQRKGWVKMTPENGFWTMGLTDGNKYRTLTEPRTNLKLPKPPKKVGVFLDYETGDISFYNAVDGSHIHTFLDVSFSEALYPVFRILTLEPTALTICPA

B1: BTN2A1 ID271 (protein)
chain: KLQKEKKILSGEKEFERETREIALKELEKERVQKEEELQVKEKLQEELRWRRTFLHAVDVVLDPDTAHPDLFLSEDRRSVRRCPFRHLGESVPDNPERFDSQPCVLGRESFASGKHYWEVEVENVIEWTVGVCRDSVERKGEVLLIPQNGFWTLEMHKGQYRAVSSPDRILPLKESLCRVGVFLDYEAGDVSFYNMRDRSHIYTCPRSAFSVPVRPFFRLGCEDSPIFICPALTGANGVTVPEEGLTLHRVGTHQSL
modifications: HMBPP
The Kd is a measure of binding affinity in units of concentration. Read a low Kd as higher affinity. Take B1: the Kd came to 0.78 µM.

B2: BTN2A1 ID271 (protein)
chain: KLQKEKKILSGEKEFERETREIALKELEKERVQKEEELQVKEKLQEELRWRRTFLHAVDVVLDPDTAHPDLFLSEDRRSVRRCPFRHLGESVPDNPERFDSQPCVLGRESFASGKHYWEVEVENVIEWTVGVCRDSVERKGEVLLIPQNGFWTLEMHKGQYRAVSSPDRILPLKESLCRVGVFLDYEAGDVSFYNMRDRSHIYTCPRSAFSVPVRPFFRLGCEDSPIFICPALTGANGVTVPEEGLTLHRVGTHQSL
modifications: 4-M-HMBPP
Turning to B2, the Kd was found to be 190 µM.
